Test results taken from patent US20240287161A1.

Tests used:
[1] = target: SARS-CoV-2 spike receptor-binding domain (RBD, amino acids 322 to 536), histidine-tagged (Example 2) (SARS-CoV-2) (UniProt P0DTC2)
[2] = target: Authentic CoV2 (SARS-CoV-2 JPN/TY/WK-521)
[3] = target: SARS-CoV2 S protein on VSV pseudovirus (SARS-CoV-2) (UniProt P0DTC2)

Substance: REGN10933 (antibody)
- EC50 [1]: 0.194 µg/mL
- IC50, authentic virus neutralization [2]: 0.0381 µg/mL
- IC50, pseudovirus neutralization [3]: 0.0089 µg/mL

Substance: REGN10987 (antibody)
- EC50 [1]: 3.3 µg/mL
- IC50, authentic virus neutralization [2]: 0.134 µg/mL
- IC50, pseudovirus neutralization [3]: 0.0416 µg/mL
